Results from US20240101685A1, “NEAR INFRARED PHOTOIMMUNOTHERAPY (NIR-PIT) COMBINATION THERAPY TO TREAT CANCER” (THE UNITED STATES OF AMERICA, as represented by the …, priority 2021, published 2024).

System: PD-L1 expression on cancer cell lines MC38-luc and LL2-luc
Assay: Flow-cytometric analysis of PD-L1 expression with or without interferon gamma
Assay type: cell-based
Settings: cell culture, 20 ng/ml or 50 ng/ml IFNgamma
Method: FIG. 12: Flow cytometry analysis showing PD-L1 expression in cancer cell lines before and after stimulation with 20 ng/ml or 50 ng/ml IFNgamma (IFNγ).

B1: interferon gamma: immunoactivator cytokine (protein, UniProt P01579 24-161, looked up)
Interferon gamma: QDPYVKEAENLKKYFNAGHSDVADNGTLFLGILKNWKEESDRKIMQSQIVSFYFKLFKNFKDDQSIQKSVETIKEDMNVKFFNSNKKKRDDFEKLTNYSVTDLNVQRKAIHELIQVMAELSPAAKTGKRKRSQMLFRG
  PD-L1 expression: conditionally enhanced the expression of PD-L1
Listed as IFN-gamma
  PD-L1 expression: PD-L1 expression increases
